Measured values published in patent US20200283478.

Legend:
Compound 112 = system: T1, Compound 112
T1 sequence: WNLVRIGLTR

Compound 26 = system: T2, Compound 26
T2 sequence: SGCFIPWNLQRIGLLC

Compound 29 = system: T3, Compound 29
T3 sequence: SGCFIPWNLQRIGLLC

Pep2-8 = system: T4, Pep2-8
T4 sequence: TVFTSWEEYLDWV

PCSK9-R167A:R215A:R218A
FXIa cleavage of the P′ helix (immunoblot) (Compound 112): able to increase the FXIa-mediated cleavage of the P′ helix at R160-I161 in a similar fashion as shown for Fab33 | FXIa cleavage of the P′ helix (immunoblot) (Compound 26): accelerated the cleavage reaction, leading to almost complete cleavage of the P′ helix | FXIa cleavage of the P′ helix (immunoblot) (Compound 29): accelerated the cleavage reaction, leading to almost complete cleavage of the P′ helix | FXIa cleavage of the P′ helix (immunoblot) (Pep2-8): largely prevented cleavage of the P′ helix by FXIa
